Substitutions are numbered along the chain they refer to. Read-outs that look alike come from different tables or passages of the source.
Tests used:
[1] = biological target: T1, cynomolgus monkey PD-L1 on cells (cynomolgus monkey, UniProt G7PSE7 19-290); experiment: FACS binding
CynoCD100-HEK293 [2] = biological target: CynoCD100-HEK293 (cynomolgus monkey); experiment: FACS
[3] = biological target: T2, full-length human CD100 protein HuCD100 on cells (human, UniProt Q92854 22-862); experiment: FACS
[4] = biological target: T3, full-length mouse CD100 protein MusCD100 on cells (mouse, UniProt O09126 24-861); experiment: FACS
T3 chain: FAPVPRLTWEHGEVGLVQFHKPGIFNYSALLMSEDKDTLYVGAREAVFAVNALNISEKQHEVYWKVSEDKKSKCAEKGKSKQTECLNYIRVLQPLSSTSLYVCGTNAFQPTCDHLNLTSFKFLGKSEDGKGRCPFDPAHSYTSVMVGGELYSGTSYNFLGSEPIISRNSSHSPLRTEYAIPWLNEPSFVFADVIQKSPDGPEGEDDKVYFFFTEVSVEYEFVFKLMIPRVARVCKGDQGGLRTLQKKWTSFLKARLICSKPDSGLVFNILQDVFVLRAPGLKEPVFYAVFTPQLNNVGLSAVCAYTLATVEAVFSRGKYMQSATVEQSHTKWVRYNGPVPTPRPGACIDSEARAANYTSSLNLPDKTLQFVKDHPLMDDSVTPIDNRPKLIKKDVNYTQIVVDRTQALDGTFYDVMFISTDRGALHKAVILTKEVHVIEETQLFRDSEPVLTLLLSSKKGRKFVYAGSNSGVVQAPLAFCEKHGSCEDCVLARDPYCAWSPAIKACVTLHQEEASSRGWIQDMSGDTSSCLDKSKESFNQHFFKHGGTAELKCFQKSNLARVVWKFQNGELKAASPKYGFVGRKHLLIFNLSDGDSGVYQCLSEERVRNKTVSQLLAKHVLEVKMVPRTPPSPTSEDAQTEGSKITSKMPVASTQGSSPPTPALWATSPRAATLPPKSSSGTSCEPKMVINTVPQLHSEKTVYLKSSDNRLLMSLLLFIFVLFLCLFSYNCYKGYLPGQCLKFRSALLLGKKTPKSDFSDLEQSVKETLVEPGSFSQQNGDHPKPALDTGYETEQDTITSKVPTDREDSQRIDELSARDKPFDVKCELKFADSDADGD

CynoCD100-HEK293 [5] = biological target: CynoCD100-HEK293 (cynomolgus monkey); experiment: FACS; remark: listed apart in the source
[6] = biological target: T3, full-length mouse CD100 protein …; experiment: FACS
[7] = biological target: T2, full-length human CD100 protein HuCD100 …; experiment: FACS; remark: listed apart in the source
CynoCD100-His [8] = biological target: CynoCD100-His (cynomolgus monkey); experiment: ELISA; FIG. 5F
HuCD100-His [9] = biological target: T4, HuCD100-His (human, UniProt Q92854 22-734); experiment: ELISA; FIG. 5D
MusCD100-His [10] = biological target: T5, MusCD100-His (mouse, UniProt O09126 24-733); experiment: ELISA; FIG. 5E
T5 chain: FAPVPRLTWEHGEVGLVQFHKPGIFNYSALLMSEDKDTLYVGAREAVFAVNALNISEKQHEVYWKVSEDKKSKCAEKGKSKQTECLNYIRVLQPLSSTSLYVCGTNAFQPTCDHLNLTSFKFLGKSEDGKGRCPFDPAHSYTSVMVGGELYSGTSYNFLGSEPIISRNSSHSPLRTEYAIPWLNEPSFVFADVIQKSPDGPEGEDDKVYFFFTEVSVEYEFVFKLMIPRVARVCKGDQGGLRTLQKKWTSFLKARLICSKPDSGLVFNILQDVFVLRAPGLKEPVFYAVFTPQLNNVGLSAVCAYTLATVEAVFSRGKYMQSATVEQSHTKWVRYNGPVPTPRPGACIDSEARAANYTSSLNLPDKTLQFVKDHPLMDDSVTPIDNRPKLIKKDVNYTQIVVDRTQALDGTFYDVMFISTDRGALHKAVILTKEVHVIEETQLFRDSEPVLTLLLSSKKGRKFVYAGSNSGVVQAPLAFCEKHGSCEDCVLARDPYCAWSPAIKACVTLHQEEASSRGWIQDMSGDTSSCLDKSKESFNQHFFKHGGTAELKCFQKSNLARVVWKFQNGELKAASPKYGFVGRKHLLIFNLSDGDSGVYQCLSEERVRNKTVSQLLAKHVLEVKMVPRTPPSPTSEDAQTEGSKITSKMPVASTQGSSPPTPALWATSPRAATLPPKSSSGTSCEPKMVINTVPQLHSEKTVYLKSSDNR

[11] = biological target: T2, full-length human CD100 protein HuCD100 …; experiment: FACS; HuPBMC cells
[12] = biological target: T2, full-length human CD100 protein HuCD100 …; experiment: FACS binding; FIG. 11D
[13] = biological target: T6, HuCD100-Fc (in-house prepared) (human, UniProt Q92854 22-734, biotinylated in the Plexin binding and blocking assays (sites not given)); experiment: FACS blocking; HuPlexin-B1-HEK293, FIG. 12B
[14] = biological target: T6, HuCD100-Fc (in-house prepared); experiment: FACS blocking; HuPlexin-B2-HEK293, FIG. 12D
MusCD100-Fc = biological target: T7, MusCD100-Fc (mouse, UniProt O09126 24-733, biotinylated in the Plexin binding and blocking assays (sites not given)); experiment: FACS blocking; MusPlexin-B1-HEK293, FIG. 12F
T7 chain: T5 chain

[15] = biological target: T6, HuCD100-Fc (in-house prepared); experiment: FACS blocking; blocking of binding to HuPlexin-B1-HEK293
[16] = biological target: T6, HuCD100-Fc (in-house prepared); experiment: FACS blocking; FIG. 8B, blocking of binding to HuPlexin-B2-HEK293
HuCD100-His [17] = biological target: T4, HuCD100-His; experiment: ELISA
MusCD100-His [18] = biological target: T5, MusCD100-His; experiment: ELISA
CynoCD100-His [19] = biological target: CynoCD100-His (cynomolgus monkey); experiment: ELISA
[20] = biological target: T1, cynomolgus monkey PD-L1 on cells; experiment: FACS binding; remark: listed apart in the source
CynoCD100-HEK293 [21] = biological target: CynoCD100-HEK293 (cynomolgus monkey); experiment: FACS; remark: listed apart in the source
CynoCD100-His [22] = biological target: CynoCD100-His (cynomolgus monkey); experiment: ELISA; FIG. 5C

T1 sequence (G7PSE7 entry or part of it): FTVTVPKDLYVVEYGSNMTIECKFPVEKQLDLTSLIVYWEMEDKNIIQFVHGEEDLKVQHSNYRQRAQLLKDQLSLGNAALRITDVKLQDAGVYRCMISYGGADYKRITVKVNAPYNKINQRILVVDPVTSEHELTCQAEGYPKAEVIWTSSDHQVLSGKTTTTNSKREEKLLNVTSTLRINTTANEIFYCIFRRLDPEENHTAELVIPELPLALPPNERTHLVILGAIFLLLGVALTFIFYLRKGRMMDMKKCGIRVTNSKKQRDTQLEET

B1: m18 (antibody, V domains shown)
VH: EVQLVESGGGLVQPGGSLRLSCAASRTDSNIHGMHWYRQAPGKGREWVGMIFIDGNTIVTDSVKGRFTISRDNAKNTLYLQMNTLRAEDTAVYYCAADSRGYGRAWGQGTTVTVSS
- EC50 [1]: 0.242 µg/mL

B2: A31 (antibody, V domains shown)
VH: EVQLVESGGGLVQPEGSLRLSCAASGFPLDYYAIGWFRQAPGKEREGVSCIISGGSTKYSASVKGRFTISRDSANNTVYLQMNSLKPEDTAVYFCAVSWSCDLFPRDTYGWDAWGQGTLVTVSS
- EC50 (CynoCD100-HEK293 [2]): 0.579 nM
- EC50 [3]: 0.374 nM
- EC50 [4]: 0.945 nM
- EC50 (CynoCD100-HEK293 [5]): 0.327 nM
- EC50 [6]: 1.15 nM
- EC50 [7]: 0.467 nM
- EC50 (CynoCD100-His [8]): 0.0512 nM
- EC50 (HuCD100-His [9]): 0.0452 nM
- EC50 (MusCD100-His [10]): 59.4 nM
- EC50 [11]: 0.754 nM
- EC50 [12]: 0.367 nM
- IC50 [13]: 0.837 nM
- IC50 [14]: ~4.24 nM
- IC50 (MusCD100-Fc): 9.86 nM
- IC50 [15]: 1.06 nM
- IC50 [16]: 2.48 nM

B3: A31-VHH1 (antibody, V domains shown)
VH: B2 VH with N75K, K86R, P87A
- EC50 [6]: 1.78 nM
- EC50 [7]: 0.504 nM
- EC50 (HuCD100-His [17]): 0.202 nM
- EC50 (MusCD100-His [18]): 0.23 nM
- EC50 (CynoCD100-His [19]): 0.131 nM
- EC50 [11]: 0.356 nM
- EC50 [12]: 0.413 nM
- IC50 [13]: 0.8 nM
- IC50 [14]: 5.43 nM
- IC50 (MusCD100-Fc): 4.84 nM

B4: Avelumab (antibody, V domains shown)
VH: EVQLLESGGGLVQPGGSLRLSCAASGFTFSSYIMMWVRQAPGKGLEWVSSIYPSGGITFYADTVKGRFTISRDNSKNTLYLQMNSLRAEDTAVYYCARIKLGTVTTVDYWGQGTLVTVSS
VL: QSALTQPASVSGSPGQSITISCTGTSSDVGGYNYVSWYQQHPGKAPKLMIYDVSNRPSGVSNRFSGSKSGNTASLTISGLQAEDEADYYCSSYTSSSTRVFGTGTKVTVLG
- EC50 [20]: 0.988 µg/mL

B5: A9-VHH2 (antibody, V domains shown)
VH: QVQLVESGGGLVQAGGSLRLSCAASGFSLDYYAIGWFRQAPGKEREEVSCISSSGGSTDYADSVKGRFTISRAYAKVYLQMNSLRAEDTAVYYCAAGVSGSVCPPLIGAYWGQGTLVTVSS
- EC50 (CynoCD100-HEK293 [21]): 0.516 nM
- EC50 (CynoCD100-His [19]): 0.743 nM

B6: A9 (antibody, V domains shown)
VH: B5 VH with R85K, A86P, L116Q
- EC50 (CynoCD100-HEK293 [2]): 0.776 nM
- EC50 (CynoCD100-HEK293 [21]): 0.47 nM
- EC50 (CynoCD100-His [22]): 0.178 nM

B7: A9-VHH3 (antibody, V domains shown)
VH: B5 VH with E44G, R45L
- EC50 (CynoCD100-HEK293 [21]): 0.835 nM
- EC50 (CynoCD100-His [19]): 1.31 nM

B8: A9-VHH1 (antibody, V domains shown)
VH: B5 VH with A14P, R85K, A86P
- EC50 (CynoCD100-HEK293 [21]): 0.551 nM
- EC50 (CynoCD100-His [19]): 0.169 nM

Source: patent publication US20260028402A1 (published 2026)
